Test results reported in article PMC7948536.

Assays:
[1] = target: E3 SCF^βTrCP (neddylated; Skp1–βTrCP with Nedd8–ROC1–CUL1) (UniProt P63208)
[2] = target: E3 SCF^βTrCP (neddylated; Skp1–βTrCP with Nedd8–ROC1–CUL1) (UniProt P63208); remark: listed apart in the source
[3] = target: E3 SCF^βTrCP (neddylated; Skp1–βTrCP with Nedd8–ROC1–CUL1) (UniProt P63208); remark: listed apart in the source

IκBα (EE)–Ub (E64C)–I647 (from UniProt P25963 1-20; P0CG48 1-74; P25963 23-54)
real-time FRET IκBα diubiquitination, 30 °C, 30 min; conversion of substrate by gel analysis (Fig. 3A, B) [1]: 85% | FRET IκBα diubiquitination in test tube, time course to 10 min: IκBα–Ub2 product by gel, FRET signal rising alike (Fig. 2A) [2]: > 30% | real-time FRET IκBα diubiquitination under single-round turnover condition (preformed complexes treated with apyrase) (Fig. 4) [3]: 20%
